B1: QacA_(D411N)GFP (natural protein)
chain: MISFFTKTTDMMTSKKRWTALVVLAVSLFVVTMDMTILIMALPELVRELEPSGTQQLWIVDIYSLVLAGFIIPLSAFADKWGRKKALLTGFALFGLVSLAIFFAESAEFVIAIRFLLGIAGALIMPTTLSMIRVIFENPKERATALAVWSIASSIGAVFGPIIGGALLEQFSWHSAFLINVPFAIIAVVAGLFLLPESKLSKEKSHSWDIPSTILSIAGMIGLVWSIKEFSKEGLADIIPWVVIVLAITMIVIFVKRNLSSSDPMLDVRLFKKRSFSAGTIAAFMTMFAMASVLLLASQWLQVVEELSPFKAGLYLLPMAIGDMVFAPIAPGLAARFGPKIVLPSGIGIAAIGMFIMYFFGHPLSYSTMALALILVGAGMASLAVASALIMLETPTSKAGNAAAVEESMYNLGNVFGVAVLGSLSSMLYRVFLDISSFSSKGIVGDLAHVAEESVVGAVEVAKATGIKQLANEAVTSFNDAFVATALVGGIIMIIISIVVYLLIPKSLDITKQK
B2: ICab B7, purified (VHH)
VHH: QVQLQESGGGSVQAGGSLRLSCAASGYTNSRKCMGWFRQIPGKEREGVAAIYGFGRGLILYADSVKGRFTISQDNAKNTVYLQMNSLKPEDTAMYYCAADSPGSCLSRSGYNYWGQGTQVTVSS
B3: ICab A4, purified (VHH)
VHH: QVQLQESGGGSVQTGGSLRLSCAASGYRYSDNCVGWFRQAPGREREAVATYNSGSSTWYADSVKGRFTISQDSAKSTVYLQMNNLKPEDTAMYYCAGRNRLGSYCYMTGDFAYWGQGTQVTVSS

Experiments:
[1] = target: ICab B7, displayed on the yeast cell surface (camel); assay: flow cytometry on cells
[2] = target: ICab A4, displayed on the yeast cell surface (camel); assay: flow cytometry on cells
five unique clones = assay: flow cytometry on cells
[3] = target: QacA WT (tagged with GFP) (Staphylococcus aureus, UniProt P0A0J9); assay: immunostaining of cells or tissue

Binder | Kd [1] [µM] | Kd [2] [µM] | population shift (five unique clones) [%] | binding result [3]
B1 | 0.1 | 0.065 | 65 to 97 | –
B2 | – | – | – | binds
B3 | – | – | – | binds

Source: article doi:10.1101/2022.07.09.499445 (bioRxiv, 2022)
